Measurements from US9127040B2, “Regulation of sodium channels by PLUNC proteins” (The University of North Carolina at Chapel Hill, priority 2011, dated 2015).

Target: T1, ENaC (Homo sapiens, UniProt P37088+P51168+P51170)
T1 construct: measured the transepithelial voltage under thin film conditions in human bronchial epithelial cultures; endogenous in cells; host or cells: primary human bronchial epithelial cultures (normal or CF donors)
T1 sequence (P37088 1-669): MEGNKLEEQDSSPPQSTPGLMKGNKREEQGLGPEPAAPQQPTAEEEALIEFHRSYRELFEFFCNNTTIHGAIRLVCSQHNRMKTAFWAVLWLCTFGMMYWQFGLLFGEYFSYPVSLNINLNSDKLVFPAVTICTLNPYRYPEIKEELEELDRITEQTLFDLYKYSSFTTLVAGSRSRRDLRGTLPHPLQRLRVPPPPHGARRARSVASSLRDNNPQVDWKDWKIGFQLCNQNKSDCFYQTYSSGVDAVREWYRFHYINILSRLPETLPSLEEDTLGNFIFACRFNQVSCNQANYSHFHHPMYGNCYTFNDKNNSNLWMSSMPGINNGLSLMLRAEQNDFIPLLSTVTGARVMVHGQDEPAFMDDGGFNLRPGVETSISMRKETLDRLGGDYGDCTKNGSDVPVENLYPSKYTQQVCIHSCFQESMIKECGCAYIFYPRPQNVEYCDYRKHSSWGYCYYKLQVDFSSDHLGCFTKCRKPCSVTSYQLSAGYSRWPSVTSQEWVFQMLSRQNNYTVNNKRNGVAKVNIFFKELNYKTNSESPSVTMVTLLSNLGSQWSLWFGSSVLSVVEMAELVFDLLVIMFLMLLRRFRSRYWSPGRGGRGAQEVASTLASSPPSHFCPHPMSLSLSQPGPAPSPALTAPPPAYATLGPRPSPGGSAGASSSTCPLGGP
T1 sequence (P51168 1-640): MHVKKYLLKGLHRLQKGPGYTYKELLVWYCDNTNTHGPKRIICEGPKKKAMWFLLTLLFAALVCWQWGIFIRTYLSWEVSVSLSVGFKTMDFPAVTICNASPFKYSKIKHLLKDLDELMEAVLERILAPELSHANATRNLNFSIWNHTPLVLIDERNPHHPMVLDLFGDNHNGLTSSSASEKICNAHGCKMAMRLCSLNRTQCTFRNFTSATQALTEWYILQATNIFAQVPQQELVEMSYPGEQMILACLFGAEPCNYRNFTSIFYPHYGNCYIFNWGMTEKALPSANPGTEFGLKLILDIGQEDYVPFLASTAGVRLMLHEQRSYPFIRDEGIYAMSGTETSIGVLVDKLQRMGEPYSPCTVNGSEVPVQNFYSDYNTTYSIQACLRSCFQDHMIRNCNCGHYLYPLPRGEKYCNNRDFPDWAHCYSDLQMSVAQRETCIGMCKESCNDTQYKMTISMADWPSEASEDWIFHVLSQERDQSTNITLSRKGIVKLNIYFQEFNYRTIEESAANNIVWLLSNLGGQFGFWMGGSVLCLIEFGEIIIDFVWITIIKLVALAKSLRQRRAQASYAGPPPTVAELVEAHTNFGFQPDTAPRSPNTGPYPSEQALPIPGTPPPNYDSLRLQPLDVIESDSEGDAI
T1 sequence (P51170 1-649): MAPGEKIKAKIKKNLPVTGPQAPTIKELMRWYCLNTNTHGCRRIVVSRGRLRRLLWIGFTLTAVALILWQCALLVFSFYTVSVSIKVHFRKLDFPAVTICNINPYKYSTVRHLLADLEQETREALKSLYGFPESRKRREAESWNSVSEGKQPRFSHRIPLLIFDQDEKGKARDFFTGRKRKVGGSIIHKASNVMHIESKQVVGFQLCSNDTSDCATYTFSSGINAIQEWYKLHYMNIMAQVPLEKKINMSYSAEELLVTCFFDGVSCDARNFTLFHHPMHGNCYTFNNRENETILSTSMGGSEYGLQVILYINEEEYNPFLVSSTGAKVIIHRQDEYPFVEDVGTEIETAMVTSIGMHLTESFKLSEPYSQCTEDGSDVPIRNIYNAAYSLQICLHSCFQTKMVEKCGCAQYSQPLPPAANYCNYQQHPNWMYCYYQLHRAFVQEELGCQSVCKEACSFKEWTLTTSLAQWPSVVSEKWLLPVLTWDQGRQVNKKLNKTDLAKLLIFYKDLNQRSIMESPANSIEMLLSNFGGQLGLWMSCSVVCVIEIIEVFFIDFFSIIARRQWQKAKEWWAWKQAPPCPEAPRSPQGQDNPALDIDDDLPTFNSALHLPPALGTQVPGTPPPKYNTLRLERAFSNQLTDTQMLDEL
Assay: Transepithelial voltage (PD), thin film conditions, human bronchial epithelial cultures
Format: cell-based
Source text: Tissue procurement and cell culture: Cells were harvested by enzymatic digestion from human bronchial tissue as previously described under a protocol approved by the UNC School of Medicine IRB (Tarran et al., J. Gen. Physiol. 127:591 (2006)). Human excess donor lungs and excised recipient lungs were obtained at the time of lung transplantation from portions of main stem or […] bronchi and cells were harvested by enzymatic digestion. All preparations were maintained at an air-liquid interface in a modified bronchial epithelial medium and used 2-5 weeks after seeding on 12 mm T-Clear inserts (Corning Costar) coated with human placental type VI collagen (Sigma). Phosphate buffered saline (PBS) was used for washing human bronchial epithelial culture mucosal surfaces. HBECs were maintained at an air-liquid interface in a modified bronchial epithelial growth medium (BEGM) with 5% CO2 at 37° C. and used 2-5 weeks after seeding on 12-mm T-clear inserts (Corning-Costar, Corning, N.Y., USA) (Randell, Methods Mol. Biol. 742:285 (2011)).
A single-barreled potential difference-sensing electrode was placed in the airway surface liquid by micromanipulator and used in conjunction with a macroelectrode in the serosal solution to measure transepithelial voltage using a voltmeter (World Precision Instruments). […] Transepithelial resistance was routinely measured using the EVOM system (WPI) as previously described (Tarran et al., J. Gen. Physiol. 127:591 (2006)).

B1: SPLUNC1: human SPLUNC1 (SEQ ID NO:1), 256 amino acid secreted PLUNC family protein; rSPLUNC1 is the purified V5/6His-tagged recombinant form (protein, listed as Homo sapiens)
chain: MFQTGGLIVFYGLLAQTMAQFGGLPVPLDQTLPLNVNPALPLSPTGLAGSLTNALSNGLLSGGLLGILENLPLLDILKPGGGTSGGLLGGLLGKVTSVIPGLNNIIDIKVTDPQLLELGLVQSPDGHRLYVTIPLGIKLQVNTPLVGASLLRLAVKLDITAEILAVRDKQERIHLVLGDCTHSPGSLQISLLDGLGPLPIQGLLDSLTGILNKVLPELVQGNVCPLVNEVLRGLDITLVHDIVNMLIHGLQFVIKV
modifications: V5/6His tag in recombinant form
notes: rSPLUNC1 is the purified V5/6His-tagged recombinant form
transepithelial voltage (50 ng/ml rSPLUNC1 in 20 μl Ringer, PBS-washed cultures): significantly reduced the transepithelial voltage
regulation of transepithelial voltage in cultures lacking SPLUNC1 (SPLUNC1 shRNA knockdown, 50 ng/ml rSPLUNC1): restored
transepithelial voltage, cultures not pre-washed (airway surface liquid left to accumulate for 24 h): without further effect
onset of inhibition (human bronchial epithelial cultures, FIG. 2C, 2D): 30 to 60 min
transepithelial voltage, addition to amiloride-treated cultures (rSPLUNC1 added to the same amiloride-treated cultures, n=12): without further effect
rate of inhibition of the transepithelial voltage (rSPLUNC1 vs aprotinin addition, effects not additive): identical rates
